Experimental data from patent US20160280798A1, “ALK ANTIBODIES, CONJUGATES, AND CHIMERIC ANTIGEN RECEPTORS, AND THEIR USE” (The United States of America, as Represented by the …, priority 2013, published 2016).
Where two headings read alike, the source gives them in different places.

What was measured:
[1] = biological target: T1, human anaplastic lymphoma kinase (ALK) protein (human, UniProt Q9UM73 19-1620); assay: flow cytometry on tumor cell lines expressing ALK
T1 construct: Endogenous ALK on tumor cell lines (SY5Y, LAN5, KCNR, IMR32, Rh18); also called CD246; cell surface ALK
T1 sequence (Q9UM73 19-1620 limits assumed): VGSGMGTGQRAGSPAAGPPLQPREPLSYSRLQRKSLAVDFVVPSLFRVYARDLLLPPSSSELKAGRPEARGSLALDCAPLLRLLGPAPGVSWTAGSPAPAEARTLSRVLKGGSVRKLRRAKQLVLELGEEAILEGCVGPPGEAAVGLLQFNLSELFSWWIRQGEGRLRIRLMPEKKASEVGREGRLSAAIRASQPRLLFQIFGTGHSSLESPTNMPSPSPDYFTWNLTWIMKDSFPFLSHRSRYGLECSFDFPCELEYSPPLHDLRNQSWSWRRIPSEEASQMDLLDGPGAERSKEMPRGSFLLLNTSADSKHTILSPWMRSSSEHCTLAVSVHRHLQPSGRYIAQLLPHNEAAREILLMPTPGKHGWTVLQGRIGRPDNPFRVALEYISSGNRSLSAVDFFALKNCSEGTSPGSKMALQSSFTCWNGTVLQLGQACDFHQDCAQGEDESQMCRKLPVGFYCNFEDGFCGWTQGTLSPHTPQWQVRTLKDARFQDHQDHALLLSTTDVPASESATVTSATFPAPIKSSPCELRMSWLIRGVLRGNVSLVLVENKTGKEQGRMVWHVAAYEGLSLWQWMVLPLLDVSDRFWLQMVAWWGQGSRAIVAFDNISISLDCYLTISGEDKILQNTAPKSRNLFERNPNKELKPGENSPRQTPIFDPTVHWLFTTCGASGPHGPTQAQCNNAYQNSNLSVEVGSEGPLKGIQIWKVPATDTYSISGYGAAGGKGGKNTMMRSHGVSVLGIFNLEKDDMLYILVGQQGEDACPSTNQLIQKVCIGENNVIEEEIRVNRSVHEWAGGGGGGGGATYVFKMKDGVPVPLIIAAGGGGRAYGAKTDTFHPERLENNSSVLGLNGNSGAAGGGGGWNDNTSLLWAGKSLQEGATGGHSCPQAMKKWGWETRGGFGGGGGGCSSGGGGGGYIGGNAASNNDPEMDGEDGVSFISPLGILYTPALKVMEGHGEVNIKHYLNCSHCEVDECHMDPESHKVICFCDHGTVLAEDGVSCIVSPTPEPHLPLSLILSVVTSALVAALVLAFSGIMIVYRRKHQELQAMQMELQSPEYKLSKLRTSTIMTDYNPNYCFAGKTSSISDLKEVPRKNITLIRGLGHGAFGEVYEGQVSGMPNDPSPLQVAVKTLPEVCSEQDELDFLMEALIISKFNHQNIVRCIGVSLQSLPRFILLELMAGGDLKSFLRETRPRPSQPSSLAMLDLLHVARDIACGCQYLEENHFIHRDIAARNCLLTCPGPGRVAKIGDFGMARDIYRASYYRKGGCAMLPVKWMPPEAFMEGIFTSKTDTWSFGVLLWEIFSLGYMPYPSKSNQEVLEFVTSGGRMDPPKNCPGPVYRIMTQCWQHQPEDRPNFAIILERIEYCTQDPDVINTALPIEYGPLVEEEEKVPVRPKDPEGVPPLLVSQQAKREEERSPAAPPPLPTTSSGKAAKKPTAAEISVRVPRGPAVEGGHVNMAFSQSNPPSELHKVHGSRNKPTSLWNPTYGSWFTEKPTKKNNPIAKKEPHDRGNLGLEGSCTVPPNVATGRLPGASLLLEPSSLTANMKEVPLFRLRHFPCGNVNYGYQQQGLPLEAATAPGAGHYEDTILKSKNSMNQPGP
Method: Cell lines used in these studies were: Sy5Y, LAN5, K562, Rh18, IMR32, KCNR. Cells were cultured in RPMI-1640 supplemented with 2 mM lgln, 10 mM HEPES, Pen/Strep, (Gibco, Life Technologies, Grand Island, N.Y.) and 10% FBS (Omega Scientific, Tarzana, Calif.). Anti-ALK antibodies were produced as described previously: ALK15A (IgG2b, weak agonist, membrane proximal binding), ALK48B (IgG2a, agonist, membrane proximal binding), ALK53A, ALK58A (binds to a membrane distal epitope) (Mazot et al., Oncogene, 30, 2017-2025, 2011; Moog-Lutz et al., J Biol. Chem., 280, 26039-26048, 2005). Staining for ALK expression on tumor lines was performed as follows: 2.5 μL primary antibody (1 mg/ml conc.) per 1 million cells was added to cells on ice in FACS buffer, FB, (PBS, 0.5% BSA, 0.02% NaN3) for 20 minutes, cells were washed twice, then stained with 5 μL FITC-F(ab′)2 Fragment Goat Anti-Mouse IgG+IgM (H+L) secondary antibody (Jackson ImmunoResearch, 1 mg/ml) for 20 minutes, washed, then analyzed by flow cytometry.
As reported previously, ALK MAbs 7, 48, 53, and 58 were able to detected ALK expression on tumor cell lines by flow cytometry. The ALK-specific MAb was used to define the expression of ALK on a series of neuroblastoma call lines, and a rhabdomyosarcoma cell line. FIG. 1 illustrates that the neuroblastoma cell lines SY5Y, LAN5, KCNR, IMR32, all express cell surface ALK, as does the rhabdomyosarcoma cell line Rh18. The differences in expression were quite varied with the SY5Y staining the brightest for ALK expression. This was true when the other MAbs specific for ALK were tested as well.

ALK [2] = details: flow cytometry; as reported previously; cited from earlier work
Target sequence in this assay (Q9UM73 19-1038 limits assumed): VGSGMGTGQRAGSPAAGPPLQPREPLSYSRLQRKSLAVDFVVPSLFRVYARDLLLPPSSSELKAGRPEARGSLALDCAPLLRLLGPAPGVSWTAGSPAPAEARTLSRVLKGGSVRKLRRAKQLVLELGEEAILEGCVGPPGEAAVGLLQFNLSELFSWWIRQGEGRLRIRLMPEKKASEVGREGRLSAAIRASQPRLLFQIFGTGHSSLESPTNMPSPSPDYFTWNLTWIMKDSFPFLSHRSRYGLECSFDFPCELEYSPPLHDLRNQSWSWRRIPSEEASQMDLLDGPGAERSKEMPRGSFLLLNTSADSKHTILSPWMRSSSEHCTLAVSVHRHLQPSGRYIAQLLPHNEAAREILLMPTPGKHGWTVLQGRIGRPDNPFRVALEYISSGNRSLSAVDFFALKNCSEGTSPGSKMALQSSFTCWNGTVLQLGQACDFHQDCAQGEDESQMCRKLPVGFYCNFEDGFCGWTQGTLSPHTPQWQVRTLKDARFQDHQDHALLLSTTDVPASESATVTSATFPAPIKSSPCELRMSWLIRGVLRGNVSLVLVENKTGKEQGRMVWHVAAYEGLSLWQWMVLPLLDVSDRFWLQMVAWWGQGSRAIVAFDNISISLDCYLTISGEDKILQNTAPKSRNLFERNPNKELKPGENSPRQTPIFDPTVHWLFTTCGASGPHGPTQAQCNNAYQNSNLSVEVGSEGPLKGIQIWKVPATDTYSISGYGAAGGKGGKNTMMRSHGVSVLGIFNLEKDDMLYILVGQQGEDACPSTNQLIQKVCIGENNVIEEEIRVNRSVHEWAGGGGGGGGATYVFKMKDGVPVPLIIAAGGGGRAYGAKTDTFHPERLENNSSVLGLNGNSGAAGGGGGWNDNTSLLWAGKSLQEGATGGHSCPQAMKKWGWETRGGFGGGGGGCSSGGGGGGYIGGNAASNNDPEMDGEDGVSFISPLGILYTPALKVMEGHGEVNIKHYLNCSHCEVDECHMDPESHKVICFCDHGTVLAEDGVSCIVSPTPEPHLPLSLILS

ALK [3] = details: cited from earlier work
Target sequence in this assay (Q9UM73 19-1620): as the sequence (Q9UM73 19-1620 limits assumed) above

[4] = biological target: T2, extracellular domain of ALK (Homo sapiens, UniProt Q9UM73); details: cited from earlier work
T2 construct: monoclonal antibodies (mAb) against the extracellular domain of ALK
T2 sequence (Q9UM73 19-1038 limits assumed): as the sequence (Q9UM73 19-1038 limits assumed) above

[5] = tested on: ALK+ human neuroblastoma cells (SY5Y cells); assay: SY5Y neuroblastoma xenograft assay; assay type: in vivo; details: transduced T cells given on day 13, no treatment on day 6
Method: NSG mice were injected s.c. on day 0 with 5×10^6 human neuroblastoma cells (SY5Y in vivo passaged and re-cultured as a new line, SY5Y.P1). On day 6, 5.1×10^6 ALK48-28z CAR(+)ve T cells were injected r.o. (34% positive/15 million total). CAR-treated mice were given a cocktail of (0.9 μg IL-7+6.6 μg M25 anti-IL7 mAb) i.p. every 2-3 days, for the time period indicated above. Survival statistics were calculated using Log-rank (Mantel-Cox) analysis (Prism Software, Inc.). On day 13, 3.2×10^6 ALK48SH-trasnduced T cells were given. The experiment was ended on day 64 due to graft vs host disease-like symptoms, standardly encountered in the NSG model system.
NOD scid gamma (NSG) mice were inoculated with ALK+ human neuroblastoma cells (SY5Y cells). On day 6, the mice were treated with human T cells transduced to express the murine ALK specific ALK48-28z CAR (SEQ ID NO: 49, long form CAR with CH2CH3 spacer domain) or mock treated T cells. […] In a separate set of mice, on day 13 post inoculation (and without any treatment on day 6), the mice were treated with ALK48SH-28z (SEQ ID NO: 50, short form CAR without spacer domain) transduced T cells.
The mice also received biweekly injections of IL-7 complexed to anti-IL7 antibody to promote T cell persistence. […] The other two groups all died of tumor.

[6] = tested on: tumor cell lines (LAN5 SY5Y, Rh18, K562); assay: Cytokine release on co-culture of CAR T cells with tumor cell lines; assay type: cell-based; details: 24-hour co-culture with tumor cell lines; FIG. 6
Method: FIGS. 6A-6C show a series of graphs illustrating cytokine activity of the disclosed CAR T Cells. PBMC were transduced with the indicated CAR constructs, and incubated with tumor targets (LAN5 SY5Y, Rh18, K562 as indicated in legend), and supernatants collected after 24 hours and tested for the presence of cytokine by a MesoScale mutli-analyte detection system. […] Controls include mock transduced cells, tumor only, and T cells without tumor target, as indicated.
T cell cytolytic function was assayed in standard 51Cr release assays as described elsewhere (Haso et al., (2013) Blood, 121, 1165-1174). Cytokine release was assayed by co-incubating 25,000 T cells with 25,000 tumor cell targets in cRPMI. At 24 hours culture media was collected and cytokines measured (Human TH1/TH2 multiplex, Meso Scale Discovery, Rockville, Md.).

Molecule | binding result [1] | detection of ALK expression on tumor cell lines (ALK [2]) | agonist activity on ALK (ALK [3]) | location of epitope on ALK [4] | further results
ALK53 monoclonal antibody (antibody, V domains shown, Murine hybridoma antibody; also called ALK53A; ALK MAb 53) VH: DVQLQESGPVLVKTGASVKMSCTASGYTFTDHFMDWVKQSHGKSLEWIGSLNPYSGGTSYNQKFKGKATLTVDKSSSTAYMELNSLTSVDSAVYYCARHNWGAYFDYWGQGTTLTVSS VL: DIVMTQAAPSVPVTPGESVSISCRSSKSLLHSNGNTYLYWFLQRPGQSPQRLIYYMSNLASGVPDRFSGRGSGTDFTLRISRVEAEDVGVYYCMQGLEDPYTFGGGTKLEIK | binds |  |  |  | 
ALK53A: anti-ALK monoclonal antibody; VH SEQ ID NO: 5, VL SEQ ID NO: 6 (antibody, V domains shown, Antibody variable domain sequence) VH: DVQLQESGPVLVKTGASVKMSCTASGYTFTDHFMDWVKQSHGKSLEWIGSLNPYSGGTSYNQKFKGKATLTVDKSSSTAYMELNSLTSVDSAVYYCARHNWGAYFDYWGQGTTLTVSS VL: DIVMTQAAPSVPVTPGESVSISCRSSKSLLHSNGNTYLYWFLQRPGQSPQRLIYYMSNLASGVPDRFSGRGSGTDFTLRISRVEAEDVGVYYCMQGLEDPYTFGGGTKLEIK |  | able to detected ALK expression |  |  | 
ALK58 monoclonal antibody (antibody, V domains shown, Murine hybridoma antibody; also called ALK58A; ALK MAb 58) VH: ALQLQQSGAELVRPGASVTLSCKASGYTFTDYEMHWVKQTPVHGLEWIGAIDPETGGTAYNQKFEGKAILTADKSSSTAYMELRSLTSEDSPVYYCARRRYYGSSSFDYWGQGTTLTVSS VL: DVQMIQTPSSLSASLGDRVTISCRASQDIGNYLNWYQQKPDGTVKLLIYYTSRLHSGVPSRFSGSGSGTEYSLTISNLEQEDIATYFCQQGSALPPTFGGGTKLEIN | binds |  |  |  | 
ALK58A: anti-ALK monoclonal antibody; VH SEQ ID NO: 7, VL SEQ ID NO: 8 (antibody, V domains shown, Antibody variable domain sequence) VH: ALQLQQSGAELVRPGASVTLSCKASGYTFTDYEMHWVKQTPVHGLEWIGAIDPETGGTAYNQKFEGKAILTADKSSSTAYMELRSLTSEDSPVYYCARRRYYGSSSFDYWGQGTTLTVSS VL: DVQMIQTPSSLSASLGDRVTISCRASQDIGNYLNWYQQKPDGTVKLLIYYTSRLHSGVPSRFSGSGSGTEYSLTISNLEQEDIATYFCQQGSALPPTFGGGTKLEIN |  | able to detected ALK expression | activating | membrane distal epitope | phosphorylation of the receptor upon binding (ALK [3]): induce phosphorylation; form of ALK bound (220 kD / 140 kDa cleaved) [4]: only the 220 KDa form; location of epitope on ALK ([4]; listed as clone 58): more distal cleaved region
ALK48SH-28z: CAR, SEQ ID NO: 50; murine ALK48 scFv, no spacer (short form), 28z (protein, chimeric antigen receptor sequence, murine ALK48 scFv, no spacer (short form), 28z) LLVTSLLLCELPHPAFLLIPDTQVQLQQSGAELVKPGASVKISCKASGYAFSSYWMNWVKQRPGKGLEWIGQIYPGDGDTTYNGKFKGKATLTADKSSSTVYMQLNSLTSEDSAVYFCVRYYYGSSGYFDYWGQGTTLTVSSGGGGSGGGGSGGGGSDVQMIQTPDSLAVSLGQRATISCRASESVDNYGISFMHWYQQKPGQSPKLLIYRASNLESGIPARFSGSGSRTDFTLTINPVETDDVATYYCQQNNKDPPTFGGGTKLEIKRAAAIEVMYPPPYLDNEKSNGTIIHVKGKHLCPSPLFPGPSKPFWVLVVVGGVLACYSLLVTVAFIIFWVRSKRSRLLHSDYMNMTPRRPGPTRKHYQPYAPPRDFAAYRSRVKFSRSADAPAYQQGQNQLYNELNLGRREEYDVLDKRRGRDPEMGGKPRRKNPQEGLYNELQKDKMAEAYSEIGMKGERRRGKGHDGLYQGLSTATKDTYDALHMQALPPR |  |  |  |  | effect on survival [5]: no effect on survival
ALK15A: anti-ALK monoclonal antibody, IgG2b; VH SEQ ID NO: 1, VL SEQ ID NO: 2 (antibody, V domains shown, Antibody variable domain sequence) VH: DVKLQESGPGLVAPSQSLSITCTVSGFSLTSYAVSWVRQPPGKGLEWLGIIWSGGATNYNSALKSRLSISKDNSKSQVFLKMNGLQTDDTARYYCAREHYYGSSAMDYWGQGASITVSS VL: GIVMTQSPLSLPVSLGDQASISCRSSQSIVHSYGNTYLFWYLQKPGQSPKLLIYRVSNRFSGVPDRFSGSGSGTNFTLKISRVEAEDMGVYYCFQGTHVPYTFGGGTKLEIK |  |  | weak agonist | membrane proximal binding | 
ALK48 monoclonal antibody (antibody, IgG2a, V domains shown, Murine hybridoma antibody; also called ALK48B; ALK MAb 48) VH: QVQLQQSGAELVKPGASVKISCKASGYAFSSYWMNWVKQRPGKGLEWIGQIYPGDGDTTYNGKFKGKATLTADKSSSTVYMQLNSLTSEDSAVYFCVRYYYGSSGYFDYWGQGTTLTVSS VL: DVQMIQTPDSLAVSLGQRATISCRASESVDNYGISFMHWYQQKPGQSPKLLIYRASNLESGIPARFSGSGSRTDFTLTINPVETDDVATYYCQQNNKDPPTFGGGTKLEIK | binds |  |  |  | 
ALK48B: anti-ALK monoclonal antibody, IgG2a; VH SEQ ID NO: 3, VL SEQ ID NO: 4 (antibody, V domains shown, Antibody variable domain sequence) VH: QVQLQQSGAELVKPGASVKISCKASGYAFSSYWMNWVKQRPGKGLEWIGQIYPGDGDTTYNGKFKGKATLTADKSSSTVYMQLNSLTSEDSAVYFCVRYYYGSSGYFDYWGQGTTLTVSS VL: DVQMIQTPDSLAVSLGQRATISCRASESVDNYGISFMHWYQQKPGQSPKLLIYRASNLESGIPARFSGSGSRTDFTLTINPVETDDVATYYCQQNNKDPPTFGGGTKLEIK |  | able to detected ALK expression | agonist | membrane proximal binding | phosphorylation of the receptor upon binding (ALK [3]): induce phosphorylation; agonist activity on ALK (ALK [3]; listed as mAb 48): activating; form of ALK bound (220 kD / 140 kDa cleaved) [4]: both; location of epitope on ALK ([4]; listed as clone 48): closer to the cell surface membrane
ALK48: CAR construct, long format: SP-murine ALK48 scFv-CH2CH3 spacer; signaling domains not stated for the in vitro tests (antibody, V domains shown) VH: QVQLQQSGAELVKPGASVKISCKASGYAFSSYWMNWVKQRPGKGLEWIGQIYPGDGDTTYNGKFKGKATLTADKSSSTVYMQLNSLTSEDSAVYFCVRYYYGSSGYFDYWGQGTTLTVSS VL: DVQMIQTPDSLAVSLGQRATISCRASESVDNYGISFMHWYQQKPGQSPKLLIYRASNLESGIPARFSGSGSRTDFTLTINPVETDDVATYYCQQNNKDPPTFGGGTKLEIK |  |  |  |  | IFN-gamma production [6]: Strong; IL-2 production [6]: lower levels; TNF-alpha production [6]: lower levels
